Test [1] has as its system luciferase reporter gene in HEK293 cells. The test can be described thus: Transcriptional regulation assay (split transcription factor), luciferase reporter. In kind it is cell-based, human. Conditions: for EC50: read-out: EC50; for fold increase in luciferase expression: direct comparison of DBD-PRSIM constructs with FRB:FKBP12:rapalog positive control; for max fold change: firefly luciferase. The text has this:
The iDimerize regulated transcription system (Takara) was used to test the ability of PRSIM-based CIDs to regulate gene expression. […] The DBD and AD are separately fused to the two protein components of a CID such that, only in the presence of the small molecule inducer, the AD is brought into close proximity to the DBD, recruiting the transcription machinery to a promoter harbouring the DBD recognition sites. The iDimerize regulated transcription system (Takara) provides two vectors, pHet-Act1-2 and pZFHD1-Luciferase. The pHet-Act1-2 vector encodes two fusion proteins that represent a positive control: one is a fusion between FRB (T82L mutant; DmrC) and an activation domain (AD) from human p65 (SEQ ID NO: 42); the other is a fusion protein comprised of a DNA binding domain (ZFHD1) (SEQ ID NO: 43) fused to three tandem copies of FKBP12 (DmrA). These sequences are preceded by a CMV promoter and separated by an internal ribosome entry site (IRES). The ZFHD1 vector encodes luciferase preceded by an inducible promoter consisting of 12 copies of the recognition sequence of the ZFHD1 DBD upstream of a minimal IL-2 promoter. Binding of the DBD to its recognition sequence and recruitment of the transcriptional machinery by the AD initiates transcription of the luciferase reporter gene. The DNA sequence encoding HCV NS3/4A PR (S139A) was purchased as a DNA string from GeneArt and cloned into the pHet-Act1-2 vector as either an N-terminal fusion partner to the activation domain (SEQ ID NO: 44) (replacing FRB) or as a C-terminal fusion partner to the DNA binding domain (SEQ ID NO: 45) (replacing FKBP12) with flexible linkers (TGGGGSGGGGS (SEQ ID NO: 185) and SA, respectively) between the fusion partners. Subsequently, sequences encoding one copy of a panel of 12 PRSIM molecules (Table 2) were purchased as DNA strings from GeneArt and were cloned using Gibson assembly into the HCV NS3/4A PR (S139A)-containing pHetAct1-2 constructs described above, as a fusion partner to either the DBD (SEQ ID NOS: 46-56) or AD (SEQ ID NOS: 57-67), respectively. An equivalent construct was generated to replace the three copies of FKBP12 in pHet-Act1-2 with a single copy of FKBP12. The sequence of the constructs encoding both activation domain and DNA-binding domain fusion proteins was confirmed by Sanger sequencing of the entire coding region.
Sequences encoding the three HCV NS3/4A PR (S139A) mutants (Table 6) were purchased as DNA strings from GeneArt and were cloned using Gibson assembly into the pHetAct1-2 HCV NS3/4A PR (S139A)-PRSIM_23 (3 tandem copy) construct described above as a fusion partner to the AD (SEQ ID NOs: 211-216).
All transcriptional regulation assays were performed in adherent HEK293 cells cultured in 384-well plates. Cells enzymatically dissociated from a tissue culture flask were counted and plated at 7.5×10^3 cells/well in a 384-well plate. The plates were incubated overnight at 37° C. with 5% CO2 to allow the cells to adhere. On day 2, the cells were co-transfected with a pHet-Act1-2 plasmid (containing the FRB:FKBP12 control fusion proteins (Clontech) or the HCV NS3/4A PR (S139A):PRSIM fusion proteins) and a pZFHD1 plasmid (encoding either luciferase (Clontech) or NanoLuc-PEST (as described above)) using Lipofectamine LTX (ThermoFisher). On day 3, wells were treated with different concentrations of either A/C heterodimeriser (for the FRB:FKBP12 control), simeprevir or with vehicle control, and 24 hours later luminescence was quantified with an Envision plate reader immediately following addition of SteadyGlo luciferase substrate (Promega) or Nano-Glo Vivazine luciferase substrate (Promega). Alternatively, reverse transfections were carried out on Day 1, addition of dimeriser on Day 2 and luminescence quantified 24 hours later on Day 3.
Luminescence readings were converted into fold-change by dividing the signal in the presence of simeprevir by that in the absence of simeprevir.
For orientation: A reporter such as luciferase makes a cellular process visible.

The target in test [2] is BSA (Bos taurus, UniProt P02769). In words: Biacore 8K BSA control. Conditions: 10 nM simeprevir present. Type of test: binding. The arrangement: key: # = no binding; * = minimal non-specific binding. How it is done: The HCV NS3/4A PR (S139A), or BSA control, was diluted 1:4 (1.25-20 nM)±10 nM simeprevir in 10 mM Hepes pH 7.4, 150 mM NaCl, 0.05% Surfactant P20, 0.01% DMSO, ensuring constant simeprevir and DMSO concentration. The samples were flowed over the chip at 50 μl/min using single cycle kinetics, with 120 sec association and 600 sec dissociation. The chip surface was regenerated with two 20 sec pulses of 10 mM Glycine-HCl pH 3.0. The final sensorgrams were analysed using the Biacore 8K Evaluation Software and the affinity constant KD was determined using a 1:1 binding model. The same method was used for measuring the affinity of the HCV NS3/4A PR mutants for PRSIM_23 with minor deviations. The mutants were diluted 1:4 (2.5-40 nM)±simeprevir in 10 mM Hepes pH 7.4, 150 mM NaCl, 0.05% Surfactant P20, 0.08% DMSO, ensuring constant simeprevir and DMSO concentration. The samples were flowed over the chip at 50 μl/min using single cycle kinetics, with 180 sec association and 600 sec dissociation.
For orientation: Surface plasmon resonance follows binding to a sensor surface in real time, without labels.

The mark [3] stands for this setting: PRSIM fused to AD, one copy, simeprevir dose-response.
Where [4] appears, read: PRSIM fused to DBD, one copy, simeprevir dose-response.

“And” between values parts separate entries of the source, which are not always exact repeats. Equal entries are not always repeated. Where two headings read alike, the source gives them in different places.

B1: PRSIM_75: scFv PRSIM binding molecule, SEQ ID NO: 15 (protein)
scFv: EVQLVQSGAEVKKPGSSVKVSCKASGGSFNSYTLDWVRQAPGQGLEWMGGIIPVFGSPNYGQKFQGRVTITADESTSTAYMELSSLKSDDTAVYYCARGLVYQPLDSWGRGTLVTVSSGGGGSGGGGSGGGGSAQAVLTQPSSASGTPGQRVTISCSGSSSNIGSYTVNWYQQFPGTAPKLLIYSNTQRPSGVPDRFSGSKSGTSASLAISGLQSEDEADYYCAAWDDSLNGWVFGGGTKVTVL
modifications: PRSIM_75
A word on the EC50: it is the concentration that produces a half-maximal response. Regarding B1, the Max fold change in test [1] (PRSIM fused to AD, one copy) was 40.67; in test [1] (PRSIM fused to DBD, one copy), 9.4. For the same molecule, the EC50 in test [1] (setting [3]) was found to be 2.17 nM; in test [1] (setting [4]), 2.67 nM. Also, the BSA control result in test [2] was “#”.

B2: PRSIM_04: scFv PRSIM binding molecule, SEQ ID NO: 11 (protein)
scFv: QVQLVQSGAEVKKPGSSVKVSCKASGGTFSSYAISWVRQAPGQGLEWMGGIIPIFGTANYAQKFQGRVTITADESTSTAYMELSSLRSEDTAVYYCARGMAHFYQFDLWGQGTLVTVSSGGGGSGGGGSGGGGSAQSVLTQPPSASGTPGQRVTISCSGSSSNIGSNTVNWYQQLPGTAPKLLIYSNNQRPSGVPDRFSGSKSGTSASLAISGLQSEDEADYYCAAGDHDHEHVVFGGGTKLTVL
modifications: PRSIM_04
Consider B2, for which the Max fold change in test [1] (PRSIM fused to AD, one copy) is recorded as 6.9; in test [1] (PRSIM fused to DBD, one copy), 1.364. Further, the figures for the EC50 in test [1] (setting [3]) and in test [1] (setting [4]) were 159000 nM and 6.55 nM, respectively. Moreover, in test [2], the BSA control entry is recorded as “#”.

B3: PRSIM_72: scFv PRSIM binding molecule, SEQ ID NO: 14 (protein)
scFv: QVQLVQSGAEVKKPGSSVKVSCKASGGTFSSYAISWVRQAPGQGLEWMGGIIPIFGTANYAQKFQGRVTITADESTSTAYMELSSLRSEDTAVYYCARGMAHFYQFDLWGQGTLVTVSSGGGGSGGGGSGGGGSAQSVLTQPPSASGTPGQRVTISCSGSSSNIGSNTVNWYQQLPGTAPKLLIYSNNQRPSGVPDRFSGSKSGTSASLAISGLQSEDEADYYCAAGDHDHEHVVFGGGTKLTVL
modifications: PRSIM_72
As to B3, the Max fold change in test [1] (PRSIM fused to AD, one copy) was 2.2; in test [1] (PRSIM fused to DBD, one copy), 1.4. Besides, the values for the EC50 in test [1] (setting [3]) and in test [1] (setting [4]) were 4.84 nM and 33 nM, respectively. In addition, the BSA control result in test [2] is on record as “#”.

B4: PRSIM_33: Tn3 PRSIM binding molecule, SEQ ID NO: 7 (protein)
chain: RLDAPSQIEVKDVTDTTALITWYPPGRWYDDIWYFELTYGIKDVPGDRTTIKLARGDDVYSIGNLKPDTEYEVSLISWGPDRGDRAGSNPAKITFKTGL
modifications: PRSIM_33
For the molecule B4, the Max fold change in test [1] (PRSIM fused to AD, one copy) amounted to 2.9; in test [1] (PRSIM fused to DBD, one copy) it was 33.14. The EC50 is 82.4 nM in test [1] (setting [3]) and 12.8 nM in test [1] (setting [4]). The BSA control entry in test [2] is “#”.

B5: PRSIM_67: scFv PRSIM binding molecule, SEQ ID NO: 13 (protein)
scFv: EVQLVQSGAEVKKPGAAVRISCKTSGYVFTSYYVHWVRQAPGQGLEWMGVINPSGGNTNYAQKFQDRVTMTRDTSTTTVYMELSSLMFDDTAVYYCAKRDYGGPLANWGRGTLVTVSSGGGGSGGGGSGGGGSALSYELTQPPSVSEAPRQRVTISCSGSSSNIGNNAVNWYQQLPGKAPKLLIFYDDLLPSGVSDRFSGSKSGTSASLAISGLQSEDEADYYCAAWDDSLNGLVFGTGTKLTVL
modifications: PRSIM_67
For the molecule B5, the Max fold change turned out to be 87.1 in test [1] (PRSIM fused to AD, one copy) and 1 in test [1] (PRSIM fused to DBD, one copy). Further, the EC50 in test [1] (setting [3]) amounted to 4.97 nM; in test [1] (setting [4]), 2.05 nM. The BSA control entry in test [2] is “#”.

B6: PRSIM_57: scFv specific for HCV NS3/4A PR (S139A):simeprevir complex, SEQ ID NO: 12 (protein)
scFv: QVQLVQSGAEVKKPGSSVKVSCKASGGTFSSYAISWVRQAPGQGLEWMGGIIPIFGTANYAQKFQGRVTITADESTSTAYMELSSLRSEDTAVYYCARHTNYITVFDYWGQGTLVTVSSGGGGSGGGGSGGGGSAQSVLTQPPSASGTPGQRVTISCSGSSSNIGSNTVNWYQQLPGTAPKLLIYSNNQRPSGVPDRFSGSKSGTSASLAISGLQSEDEADYYCAAWDHHWEQVVFGGGTKLTVL
modifications: PRSIM_57
As for B6, the Max fold change is 10.73 in test [1] (PRSIM fused to AD, one copy); 146 and 146.6 in test [1] (PRSIM fused to DBD, one copy). Moreover, the 50% effective concentration (EC50) in test [1] (setting [3]) turned out to be 3.21 nM; in test [1] (setting [4]) it was 3.54 nM. The “fold increase in luciferase expression” value in test [1] is reported as 100 fold. For the same molecule, in test [2], the BSA control entry was “#”.

B7: PRSIM_23: Tn3 protein specific for HCV NS3/4A PR (S139A):simeprevir complex, SEQ ID NO: 5 (protein)
chain: RLDAPSQIEVKDVTDTTALITWVDPRYDDIWWFELTYGIKDVPGDRTTIKLYLNDPYYSIGNLKPDTEYEVSLISYTGDSYSRSGSNPAKITFKTGL
modifications: PRSIM_23
B7: the Max fold change is 106 and 106.67 in test [1] (PRSIM fused to AD, one copy); 88 and 88.8 in test [1] (PRSIM fused to DBD, one copy). For the same molecule, the EC50 was determined as 2.82 nM in test [1] (setting [3]), 2.47 nM in test [1] (setting [4]) and 2 nM in test [1] (fusion orientation not stated). The “fold increase in luciferase expression” value in test [1] is 100 fold. Besides, the values for the max fold change in test [1] (one copy of PRSIM_23 fused to DBD), in test [1] (three tandem PRSIM_23 fused to DBD) and in test [1] (two tandem PRSIM_23 fused to DBD) were 364.5, 4862 fold and 2436, respectively. Also, the BSA control result in test [2] is given as “#”.

Values taken from patent US20220380801A1, “TRIPARTITE SYSTEMS FOR PROTEIN DIMERIZATION AND METHODS OF USE” (priority 2019, published 2022).
